Experimental findings from PMC4348336 (Biochemistry, 2015) are described below.

The experiment concerns the target Creatine kinase brain type (CKB) (UniProt P12277 1-381). As to the kind of experiment: SEC-MALS.

Chain of Creatine kinase brain type (CKB) (P12277 whole entry): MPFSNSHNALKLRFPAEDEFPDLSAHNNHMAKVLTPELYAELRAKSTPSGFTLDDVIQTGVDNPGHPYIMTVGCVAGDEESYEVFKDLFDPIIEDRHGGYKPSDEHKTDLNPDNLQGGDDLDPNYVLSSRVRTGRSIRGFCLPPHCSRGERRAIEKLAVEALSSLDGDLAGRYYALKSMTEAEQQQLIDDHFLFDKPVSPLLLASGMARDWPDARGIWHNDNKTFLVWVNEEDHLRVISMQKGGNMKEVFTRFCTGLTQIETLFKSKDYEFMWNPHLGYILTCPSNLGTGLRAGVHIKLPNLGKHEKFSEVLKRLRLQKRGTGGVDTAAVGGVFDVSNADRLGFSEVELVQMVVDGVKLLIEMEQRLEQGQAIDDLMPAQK

B1: ASB9(1-252) (domain or fragment, UniProt Q96DX5 1-252, looked up)
chain: MDGKQGGMDGSKPAGPRDFPGIRLLSNPLMGDAVSDWSPMHEAAIHGHQLSLRNLISQGWAVNIITADHVSPLHEACLGGHLSCVKILLKHGAQVNGVTADWHTPLFNACVSGSWDCVNLLLQHGASVQPESDLASPIHEAARRGHVECVNSLIAYGGNIDHKISHLGTPLYLACENQQRACVKKLLESGADVNQGKGQDSPLHAVARTASEELACLLMDFGADTQAKNAEGKRPVELVPPESPLAQLFLER
Turning to B1, the “stoichiometry N” value is 1 ASB9 per CK dimer.
